Data published in patent US7514534.

T1: MMP-26 (human)
T1 sequence: ASDF


These binders were tested against T1, MMP-26 (human) (assay: cell-based or functional assay).

Binder	% Inhibition of JEG-3 cell invasion, 1 µg/ml (further test) [%]	% Inhibition of JEG-3 cell invasion, 5 µg/ml (first test) [%]	% Inhibition of JEG-3 cell invasion, 5 µg/ml (further test) [%]	% Inhibition of JEG-3 cell invasion, 25 µg/ml (first test) [%]	% Inhibition of JEG-3 cell invasion, 25 µg/ml (further test) [%]	% Inhibition of JEG-3 cell invasion, 50 µg/ml (further test) [%]
A01 (antibody, human IgG4, V domains shown) VH: EVQLLESGGGLVQPGGSLRLSCAASGFTFSAYNMFWVRQAPGKGLEWVSGIGSSGGIAPYADSVKGRFTISRDNSKNTLYLQMNSLRAEDTAVYYCARAAYEVENWFDPWGQGTLVTVSS VL: DIQMTQSPGTLSLSPGERATLSCRASQIVRSTYLAWYQQKPGQAPRLLIYGTSSRATGVPDRFSGSGSGTDFTLTISGLEPEDFALYYCQRYGDSPPITFGQGTRLEITR	30	19	47	51	54	70
A1-orig (antibody, human IgG4, V domains shown) VH: EVQLLESGGGLVQPGGSLRLSCAASGFTFSYYRMSWVRQAPGKGLEWVSSIGPSGGDTLYADSVKGRFTISRDNSKNTLYLQMNSLRAEDTAVYYCARSFSSGPYYFDYWGQGTLVTVSS VL: QSVLTQPPSASGTPGQRVIISCSGSSSNIGSHYVHWYQQVPGTAPKLLIYRNGQRPSGVPDRFSGFKSGTSASLAISGLRSEDEANYYCATWDDSVLFGGGTTLTVLG	53	40	58	66	64	74

Continued, values first:

% Inhibition of JEG-3 cell invasion, 1 µg/ml (further test) [%]	% Inhibition of JEG-3 cell invasion, 5 µg/ml (first test) [%]	% Inhibition of JEG-3 cell invasion, 5 µg/ml (further test) [%]	% Inhibition of JEG-3 cell invasion, 25 µg/ml (first test) [%]	% Inhibition of JEG-3 cell invasion, 25 µg/ml (further test) [%]	% Inhibition of JEG-3 cell invasion, 50 µg/ml (further test) [%]	Binder
–	6	–	27	–	–	A04 (antibody, human IgG4, V domains shown) VH: EVQLLESGGGLVQPGGSLRLSCAASGFTFSEYNMAWVRQAPGKGLEWVSRIGSSGGKTKYADSVKGRFTISRDNSKNTLYLQMNSLRAEDTAVYYCARDEAPDYGDDAEAFDIWGQGTMVTVSS VL: QSALTQPPSASGTPGQRVTISCSGGYSNMGSNYAHWYQQVPGTAPKLLIYNNNQRPSGVPDRFSGSKSGTSASLAISGLRSEDEADYYCAAWDENLSGPVFGTGTKVTVLG
42	41	55	52	70	35	D6-orig (antibody, human IgG4, V domains shown) VH: EVQLLESGGGLVQPGGSLRLSCAASGFTFSMYSMRWVRQAPGKGLEWVSSIYPSGGSTEYADSVKGRFTISRDNSKNTLYLQMNSLRAEDTAVYYCAREGGENDYWGQGTLVTVSS VL: DIQMTQSPLSLSASVGDRVAITCRASQSIDTYLNWYQQKPGKAPKLLIYAASKLEDGVPSRFSGSGTGTDFTLTIRSLQPEDFASYFCQQSYSSPGITFGPGTKVEIKR
49	24	52	50	57	39	H6-orig (antibody, human IgG4, V domains shown) VH: EVQLLESGGGLVQPGGSLRLSCAASGFTFSQYWMNWVRQAPGKGLEWVSGIGPSGGITYYADSVKGRFTISRDNSKNTLYLQMNSLRAEDTAVYYCARGEEDGYNSDYWGQGTLVTVSS VL: QSELTQPPSASGSPGQSVTISCTGTSSDVGAYNYVSWYQQHPGKAPKLIIYEVNKRPSGVPDRFSASKSGNTASLTVSGLQAEDEADYYCNSYAGSNSLIFGGGTKLTVLG
